From PMC11960969, “Mdga2 deficiency leads to an aberrant activation of BDNF/TrkB signaling that underlies autism-relevant synaptic and behavioral changes in mice” (PLOS Biology, 2025)

Tested on: hippocampal proteins
Test: DIA quantification proteomics, hippocampus of Mdga2+/- vs WT mice
Parameters: species or system mouse
Settings: S3 Table, downregulated DEPs; for log2FC: Mdga2+/- vs WT mouse hippocampus (HET-HIP-VS-WT-HIP), SE, pvalue and adj_pvalue in own columns c3-c5; for Class: regulation class of the protein, HET-HIP-VS-WT-HIP
Method: The hippocampus of 1.5–2-month-old Mdga2^ +/− male mice and their WT littermate controls was collected and sent to the BGI company for DIA quantification proteomics and data analysis. Briefly, samples were lysed and sonicated. After centrifugation, the supernatant was taken for quantification. Equal amounts of proteins (100 μg) per sample were subjected to trypsin enzymatic hydrolysis. After dryness, 10 μg enzymatic peptides per sample were separated by high-pH fractionation into a total of 10 fractions using high-performance liquid chromatography (HPLC) and freeze-dried. Data-dependent acquisition (DDA) fractions and DIA samples were analyzed by nano-LC–MS/MS. DDA data was identified by Andromeda search engine within MaxQuant. Identified results were used by Spectronaut^TM for spectral library construction. For DIA data, Spectronaut^TM used the constructed spectral library information to complete deconvolution and extraction, and used the mProphet algorithm to complete analytical quality control for obtaining reliable quantitative results. The mass spectrometry proteomics data have been deposited to the ProteomeXchange Consortium via the PRIDE [62] partner repository with the dataset identifier PXD050810. DEPs between comparison groups were identified based on the quantitative results, using the fold change >1.1 and p-value <0.05 as the criteria. After retrieval from the UniProtKB database, identified DEPs were processed for GO analysis by using DAVID (https://david.ncifcrf.gov/home.jsp) and Metascape database (https://metascape.org/gp/index.html).

Molecule	log2FC	Class
sp¦Q9JK53¦PRELP_MOUSE (protein, UniProt Q9JK53 22-378, looked up) Prolargin: QPTRPKPGIRRKPKPRPTPRFPQAPEPAEPTDLPPPLPPGPPSVFPDCPRECYCPPDFPSALYCDSRNLRRVPVIPPRIHYLYLQNNFITELPLESFQNATGLRWVNLDNNRIRKVDQRVLGKLPSLAFLYMEKNQLEEVPSALPRNLEQLRLSQNLISRIPPGVFSKLENLLLLDLQHNRLSDGVFKADTFQGLKNLMQLNLAHNILRKMPPKVPQAIHQLYLDSNKIETIPNGYFKDFPNLAFIRMNYNKLSDRGLPKNSFNISNLLVLHLSHNKISNVPAISNKLEHLYLNNNSIEKINGTQICPNNLVAFHDFSSDLENVPHLRYLRLDGNFLKPPIPLDLMMCFRLLQSVVI	-1.413	Down
sp¦Q80TS7¦DEND_MOUSE (protein, UniProt Q80TS7 1-710, looked up) Dendrin: MLDGPLFSEGPDSPRELQDEESGSCLWVQKSKLLVIEVKTISCHYSRRAPSRQSMDIQASYWARGPQSRTCRLRPGSPEPPPRRPWASRVLQEATNWRAGPPAEVRAREQEKRKAASQEREAKETERKRRKAGGARRSPLGQPRPEPRNALRAAQPTGFPVFSRPERFGQVGRAPRPSVLPQGDPGVAWAGPWGGRRPGPPSYEAHLLLRGSAGTAPRRRWDRPPPYVAPPSYEGPHRTLGTKRGPELSRAPTSSAPVPATTRTEGGRTKKRLDPRIYRDVLGAWGLRQGRGLLGGAPGCTAARARPESCKGAIEKSSGLVAAGLNSAGDSHSQGKTTGGPGTDAALSRSAISSPPRPVPRSRQHLRGSRKGKEGSEQIWLPTCWLASPKKPPVRHSQTLPRPWAPGGTGWKESLGQREGAEHETLEVWKVTRRAHTLPRISRGPAGREGIFVIDATCVVIKSQYVPTPRTQQGQLVPSGESCSVSDSLSQPKPCHEEEGEGAAANPSVCQKRLLSSRVLNQPSEGRECEAEVGQQGDSSLEERSSSGLGFPVGEVNPRDAPTQPGSQEHPTLGPAAPVCAGSLKGSEAAGVPRRAGGGWARTPGPYAGALREAVSRIRRHTAPDSDSDEAEDLSVHSGSSDGSDTDAPGASWRNERTLPALGNTRPREGGKTAGLSDSIREIVDVISQTEEGFIREDTRKTPQGNRERE	-1.4022	Down
sp¦Q8BTY2¦S4A7_MOUSE (protein, UniProt Q8BTY2 1-1034, looked up) Sodium bicarbonate …: MEADGAGEQMRPLLTRGPDEEAVVDLGKTSSTVNTKFEKEELESHRAVYVGVHVPFSKESRRRHKHRGHKHHHRRRKDKDSDKEDGRESPSYDTPSQRVQFILGTEDDDEEHIPHDLFTEMDELCYRDGEEYEWKETARWLKFEEDVEDGGDRWSKPYVATLSLHSLFELRSCILNGTVMLDMRASTLDEIADMVLDNMIASGQLDDSIRENVREALLKRHHHQNEKRFTSRIPLVRSFADIGILASPQSAPGNLDNSKSGEMKGNGSGGSRENSTVDFSKVDMNFMRKIPTGAEASNVLVGEVDFLERPIIAFVRLAPAVLLSGLTEVPVPTRFLFLLLGPAGKAPQYHEIGRSIATLMTDEIFHDVAYKAKDRNDLLSGIDEFLDQVTVLPPGEWDPSIRIEPPKSVPSQEKRKIPVFPNGSAAMSVGPPKEDDHHAGPELQRTGRLFGGLILDIKRKAPFFLSDFKDALSLQCLASILFLYCACMSPVITFGGLLGEATEGRISAIESLFGASLTGIAYSLFAGQPLTILGSTGPVLVFEKILFKFCRDYHLSYLSLRTSIGLWTSFLCIVLVATDASSLVCYITRFTEEAFAALICIIFIYEALEKLFHLGEIYAFNMHNNLDELTSYTCVCAEPSNPSNETLELWKRKNITAYSVSWGNLTVSECKTFHGMFVGSACGPHGPYVPDVLFWCVVLFFTTFFLSSFLKQFKTKGYFPTKVRSTISDFAVFLTIVIMVAIDYLVGIPSPKLHVPEKFEPTDPSRGWIISPLGDNPWWTLLIAAVPALLCTILIFMDQQITAVIINRKEHKLKFIPMPVLYGVFLYMGVSSLKGIQFFDRIKLFGMPAKHQPDLIYLRYVPLWKVHVFTVVQLTCLVLLWVIKASAAAVVFPMMVLALVFVRKLMDLCFTKRELSWLDDLMPESKKKKEDDKKKKEKEEAERMLQDDEDTVHLPFERGSLLQIPVKTLKYSIDPSVVNISDEMAKTAQWKALSMNTENAKVTRPNTSPEKPVSVTINFEDEPSKKYMDAETSL	-1.445	Down
sp¦Q61097¦KSR1_MOUSE (protein, UniProt Q61097 1-873, looked up) Kinase suppressor of Ras 1: MDRAALRAAAMGEKKEGGGGGAAADGGAGAAVSRALQQCGQLQKLIDISIGSLRGLRTKCSVSNDLTQQEIRTLEAKLVKYICKQQQSKLSVTPSDRTAELNSYPRFSDWLYIFNVRPEVVQEIPQELTLDALLEMDEAKAKEMLRRWGASTEECSRLQQALTCLRKVTGLGGEHKMDSGWSSTDARDSSLGPPMDMLSSLGRAGASTQGPRSISVSALPASDSPVPGLSEGLSDSCIPLHTSGRLTPRALHSFITPPTTPQLRRHAKLKPPRTPPPPSRKVFQLLPSFPTLTRSKSHESQLGNRIDDVTPMKFELPHGSPQLVRRDIGLSVTHRFSTKSWLSQVCNVCQKSMIFGVKCKHCRLKCHNKCTKEAPACRITFLPLARLRRTESVPSDINNPVDRAAEPHFGTLPKALTKKEHPPAMNLDSSSNPSSTTSSTPSSPAPFLTSSNPSSATTPPNPSPGQRDSRFSFPDISACSQAAPLSSTADSTRLDDQPKTDVLGVHEAEAEEPEAGKSEAEDDEEDEVDDLPSSRRPWRGPISRKASQTSVYLQEWDIPFEQVELGEPIGQGRWGRVHRGRWHGEVAIRLLEMDGHNQDHLKLFKKEVMNYRQTRHENVVLFMGACMNPPHLAIITSFCKGRTLHSFVRDPKTSLDINKTRQIAQEIIKGMGYLHAKGIVHKDLKSKNVFYDNGKVVITDFGLFGISGVVREERRENQLKLSHDWLCYLAPEIVREMIPGRDEDQLPFSKAADVYAFGTVWYELQARDWPFKHQPAEALIWQIGSGEGVRRVLASVSLGKEVGEILSACWAFDLQERPSFSLLMDMLERLPKLNRRLSHPGHFWKSADINSSKVMPRFERFGLGTLESGNPKM	-1.493	Down
sp¦Q71FD5¦ZNRF2_MOUSE (protein, UniProt Q71FD5 2-238, looked up) E3 ubiquitin-protein ligase …: GAKQSGPAANGRTRAYSGSDLPSGTGSGGGGADGARAARFAAPVSGAQQPSASAGAAAAAAAAASAPAAPRSRSLGGAVGSASGGRAAQSAFSIPSAGGGGGPYGSQDSVHSSPEDSVGARDRDRPAGGGPGGPRLVIGSLPAHLSPHLFGGFKCPVCSKFVPSDEMDLHLVMCLTKPRITYNEDVLSKDTGECAICLEELQQGDTIARLPCLCIYHKGCIDEWFEVNRSCPEHPSD	-1.4	Down
sp¦Q9JJR9¦NRIP3_MOUSE (protein, UniProt Q9JJR9 1-240, looked up) Nuclear receptor-interacting …: MFYSGLLTEGGRKETDMREAASLRQQRRMKQAVQFIHKDSADLLPLDGLKKLGSSKDTQPHNILQRRLMETNLSKLRSTRVPWASKTNKFNQAKSEGLKKCEDEDMILVSCQCAGKDVKALVDTGCQYNLISSACVDRLGLKDHVKSHKHEGEKLSLPRHLKVVGQIEHLMITVGSLRLDCQAAVVDDNEKSLSLGLQTLRSLKCIINLDKHRLIVGKTDKEEIPFVETVSVNDDNTSEA	-1.366	Down
sp¦Q80TF3¦PCD19_MOUSE (protein, UniProt Q80TF3 22-1145, looked up) Protocadherin-19: LINLKYSVEEEQRAGTVIANVAKDAREAGFALDPRQASAFRVVSNSAPHLVDINPSSGLLVTKQKIDRDLLCRQSPKCIISLEVMSSSMEICVIKVEIKDLNDNAPSFPAAQIELEISEAASPGTRIPLDSAYDPDSGSFGVQTYELTPNELFGLEIKTRGDGSRFAELVVEKSLDRETQSHYSFRITALDGGDPPHMGTVGLSIKVTDSNDNNPVFGESTYSVSVPENSPPNTPVIRLNASDPDEGTNGQVVYSFYGYVNDRTRELFQIDPHSGLVTVTGALDYEEGHVYELDVQAKDLGPNSIPAHCKVTVSVLDTNDNPPIINLLSVNSELVEVSESAPPGYVIALVRVSDRDSGLNGRVQCRLLGNVPFRLQEYESFSTILVDGRLDREQHDQYNLTIQARDSGVPMLQSAKSFTVRITDENDNHPHFSKPYYQVIVQENNTPGAYLLSVSARDPDMGLNGSVSYQIVPSQVRDMPVFTYVSINPNSGDIYALRSFNHEQTKAFEFKVLAKDGGLPSLQSNATVRVIILDVNDNTPVITAPPLINGTAEVYIPRNSGIGYLVTVVKADDYDEGENGRVTYDMTEGDRGFFEIDQVNGEVRTTRTFNENSKPSYELIVVAHDHGKTSLSASALVLIYLSPALDAQESMGSVNLSLIFIIALGSIAGILFVTMIFVAIKCKRDNKEIRTYNCSNCLTITCLLGCFIKGQNSKCLHCISVSPNSEEQDKKAEEKVSLRGKRIAEYSYGHQKKSSKKKKISKNDIRLVPRDVEETDKMNVVSCSSLTSSLNYFDYHQQTLPLGCRRSESTFLNVENQNTRNTTASHIYHHSFNSQGPQQPDLIINGVPLPETENYSFDSNYVNSRAHLIKSSSTFKDLEGNSLKDSGHEESDQTDSEHDVQRSLYCDTAVNDVLNTSVTSMGSQMPDHDQNEGFHCREECRILGHSDRCWMPRNPMPTRSKSPEHVRNIIALSIEATAADVEAYDDCGPTKRTFATFGKDVSSHRAEERPILKGKRTVDVTICSPKVNSAIREAGNGCEAISPVTSPLHLKSPLPTKPSISYTVALAPPAHDLEHHANSGASRPSEAEPRGADNEKVMHEVNPIRKDGRDKESPSVKRLKDIVL	-1.393	Down
sp¦Q7TT15¦GLT17_MOUSE (protein, UniProt Q7TT15 1-598, looked up) Polypeptide …: MASLRRVKVLLVLNLIAVAGFVIFLAKCRPIAVRSGDAFHEIRPRAEVANLSAHSASPIQDAVLKRLSLLEDIVYRQLNGLSKSLGLIEGYGGRGKGGLPATLSPSEEEKAKGPHEKYGYNSYLSEKISLDRSIPDYRPTKCKELKYSKELPQISIIFIFVNEALSVILRSVHSAVNHTPTHLLKEIILVDDNSDEEELKAPLEEYVHKRYPGLVKVVRNQKREGLIRARIEGWKAATGQVTGFFDAHVEFTAGWAEPVLSRIQENRKRVILPSIDNIKQDNFEVQRYENSAHGYSWELWCMYISPPKDWWDAGDPSLPIRTPAMIGCSFVVNRKFFGEIGLLDPGMDVYGGENIELGIKVWLCGGSMEVLPCSRVAHIERKKKPYNSNIGFYTKRNALRVAEVWMDDYKSHVYIAWNLPLENPGIDIGDVSERKALRKSLKCKNFQWYLDHVYPEMRRYNNTIAYGELRNNKAKDVCLDQGPLENHTAILYPCHGWGPQLARYTKEGFLHLGALGTTTLLPDTRCLVDNSKSRLPQLLDCDKVKSSLYKRWNFIQNGAIMNKGTGRCLEVENRGLAGIDLILRSCTGQRWAIKNPIK	-1.487	Down
